First the molecules themselves.
B1: F1*; the commonest letter at each place (parent)
chain: GAGACCGCAACTGAAAAGTTGTTATCACTTGTCGTAAGACACTTTGGATGGGTTGAAGTTCTGCACGTAGAAGCAAAAGGC

The variants in this data set derive from B1. Briefly: fraction ligated after 30 min (ligated reads / total reads); higher = more ligase activity. The note with it: with F1*sub RNA substrate (template-directed ligation), 42 °C. As to the method:
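Chip-synthesised pool of F1* ligase ribozyme variants (all single and double substitutions, single, double and triple deletions in the catalytic core and GAA bulge, plus designed variants) was transcribed with T7 and reacted as a pool with excess substrate F1*sub for 30 min at 42 C in 50 mM EPPS pH 8.5, 25 mM MgCl2. Ligated and unligated bands were separated by PAGE, barcoded by RT and deep sequenced; fraction ligated = ligated reads / total reads per variant, relative activity = FL / FL of wild type (0.826). Sequences are the DNA template of the ribozyme.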
GAGACCGCAACTGAAAAGTTGTTGTCACTTGTCGTAAGACACTTTGGATTGGTTGAAGTTCTGCACGTAGAAGCAAAAGGC [A24G G50T]: the fraction ligated came out at 0.491.

Regarding GAGACCGCAACTGAAAAGTTGTTGTCACTTGTCGTAAGACACTTTGGATCGGTTGAAGTTCTGCACGTAGAAGCAAAAGGC [A24G G50C], the fraction ligated is 0.257.

As for GAGACCGCAACTGAAAAGTTGTTGTCACTTGTCGTAAGACACTTTGGATAGGTTGAAGTTCTGCACGTAGAAGCAAAAGGC [A24G G50A], the fraction ligated is 0.449.

For GAGACCGCAACTGAAAAGTTGTTTTCACTTGTCGTAAGTCACTTTGGATGGGTTGAAGTTCTGCACGTAGAAGCAAAAGGC [A24T A39T], the fraction ligated was determined as 0.619.

In the case of GAGACCGCAACTGAAAAGTTGTTTTCACTTGTCGTAAGGCACTTTGGATGGGTTGAAGTTCTGCACGTAGAAGCAAAAGGC [A24T A39G], the fraction ligated turned out to be 0.793.

On to GAGACCGCAACTGAAAAGTTGTTTTCACTTGTCGTAAGCCACTTTGGATGGGTTGAAGTTCTGCACGTAGAAGCAAAAGGC [A24T A39C], for which the fraction ligated was 0.636.

As for GAGACCGCAACTGAAAAGTTGTTTTCGCTTGTCGTAAGACACTTTGGATGGGTTGAAGTTCTGCACGTAGAAGCAAAAGGC [A24T A27G], the fraction ligated worked out at 0.748.

For the variant GAGACCGCAACTGAAAAGTTGTTTTCTCTTGTCGTAAGACACTTTGGATGGGTTGAAGTTCTGCACGTAGAAGCAAAAGGC [A24T A27T], the fraction ligated stood at 0.712.

In the case of GAGACCGCAACTGAAAAGTTGTTTTCCCTTGTCGTAAGACACTTTGGATGGGTTGAAGTTCTGCACGTAGAAGCAAAAGGC [A24T A27C], the fraction ligated is 0.737.

Take GAGACCGCAACTGAAAAGTTGTTGTCACTTGTCGTAAGACACGTTGGATGGGTTGAAGTTCTGCACGTAGAAGCAAAAGGC [A24G T43G]: the fraction ligated amounted to 0.694.

Take GAGACCGCAACTGAAAAGTTGTTGTCACTTGTCGTAAGACACATTGGATGGGTTGAAGTTCTGCACGTAGAAGCAAAAGGC [A24G T43A]: the fraction ligated was 0.765.

As to GAGACCGCAACTGAAAAGTTGTTGTCACTTGTCGTAAGACACCTTGGATGGGTTGAAGTTCTGCACGTAGAAGCAAAAGGC [A24G T43C], the fraction ligated amounted to 0.694.

On to GAGACCGCAACTGAAAAGTTGTTGTCACTTGTCGTAAGACACTTTGGAAGGGTTGAAGTTCTGCACGTAGAAGCAAAAGGC [A24G T49A], for which the fraction ligated worked out at 0.742.

For GAGACCGCAACTGAAAAGTTGTTGTCACTTGTCGTAAGACACTTTGGAGGGGTTGAAGTTCTGCACGTAGAAGCAAAAGGC [A24G T49G], the fraction ligated worked out at 0.731.

With GAGACCGCAACTGAAAAGTTGTTGTCACTTGTCGTAAGACACTTTGGACGGGTTGAAGTTCTGCACGTAGAAGCAAAAGGC [A24G T49C], the fraction ligated is 0.731.

GAGACCGCAACTGAAAAGTTGTTTTAACTTGTCGTAAGACACTTTGGATGGGTTGAAGTTCTGCACGTAGAAGCAAAAGGC [A24T C26A]: the fraction ligated is 0.217.

Regarding GAGACCGCAACTGAAAAGTTGTTGTCACATGTCGTAAGACACTTTGGATGGGTTGAAGTTCTGCACGTAGAAGCAAAAGGC [A24G T29A], the fraction ligated stood at 0.807.

With GAGACCGCAACTGAAAAGTTGTTGTCACCTGTCGTAAGACACTTTGGATGGGTTGAAGTTCTGCACGTAGAAGCAAAAGGC [A24G T29C], the fraction ligated came to 0.741.

Consider GAGACCGCAACTGAAAAGTTGTTGTCACGTGTCGTAAGACACTTTGGATGGGTTGAAGTTCTGCACGTAGAAGCAAAAGGC [A24G T29G], for which the fraction ligated amounted to 0.811.

Turning to GAGACCGCAACTGAAAAGTTGTTTTCACTTGTCGTAAGACACTTTGGGTGGGTTGAAGTTCTGCACGTAGAAGCAAAAGGC [A24T A48G], the fraction ligated turned out to be 0.214.

As for GAGACCGCAACTGAAAAGTTGTTTTCACTTGTCGTAAGACACTTTGGTTGGGTTGAAGTTCTGCACGTAGAAGCAAAAGGC [A24T A48T], the fraction ligated was found to be 0.00859.

As for GAGACCGCAACTGAAAAGTTGTTTTCACTTGTCGTAAGACACTTTGGCTGGGTTGAAGTTCTGCACGTAGAAGCAAAAGGC [A24T A48C], the fraction ligated worked out at 0.499.

As for GAGACCGCAACTGAAAAGTTGTTTTCACTTGTCGTAGGACACTTTGGATGGGTTGAAGTTCTGCACGTAGAAGCAAAAGGC [A24T A37G], the fraction ligated was determined as 0.792.

Take GAGACCGCAACTGAAAAGTTGTTTTCACTTGTCGTACGACACTTTGGATGGGTTGAAGTTCTGCACGTAGAAGCAAAAGGC [A24T A37C]: the fraction ligated stood at 0.77.

For the variant GAGACCGCAACTGAAAAGTTGTTTTCACTTGTCGTATGACACTTTGGATGGGTTGAAGTTCTGCACGTAGAAGCAAAAGGC [A24T A37T], the fraction ligated was 0.786.

Regarding GAGACCGCAACTGAAAAGTTGTTGTCACTCGTCGTAAGACACTTTGGATGGGTTGAAGTTCTGCACGTAGAAGCAAAAGGC [A24G T30C], the fraction ligated stood at 0.693.

With GAGACCGCAACTGAAAAGTTGTTGTCACTAGTCGTAAGACACTTTGGATGGGTTGAAGTTCTGCACGTAGAAGCAAAAGGC [A24G T30A], the fraction ligated was found to be 0.745.

As to GAGACCGCAACTGAAAAGTTGTTGTCACTGGTCGTAAGACACTTTGGATGGGTTGAAGTTCTGCACGTAGAAGCAAAAGGC [A24G T30G], the fraction ligated stood at 0.79.

For GAGACCGCAACTGAAAAGTTGTTTTCACTTGTCGTAAGACCCTTTGGATGGGTTGAAGTTCTGCACGTAGAAGCAAAAGGC [A24T A41C], the fraction ligated is 0.184.

For GAGACCGCAACTGAAAAGTTGTTTTCACTTGTCGTAAGACTCTTTGGATGGGTTGAAGTTCTGCACGTAGAAGCAAAAGGC [A24T A41T], the fraction ligated was found to be 0.785.

Turning to GAGACCGCAACTGAAAAGTTGTTTTCACTTGTCGTAAGACGCTTTGGATGGGTTGAAGTTCTGCACGTAGAAGCAAAAGGC [A24T A41G], the fraction ligated came to 0.72.

For the variant GAGACCGCAACTGAAAAGTTGTTGTCACTTGTCGAAAGACACTTTGGATGGGTTGAAGTTCTGCACGTAGAAGCAAAAGGC [A24G T35A], the fraction ligated came out at 0.786.

As for GAGACCGCAACTGAAAAGTTGTTGTCACTTGTCGGAAGACACTTTGGATGGGTTGAAGTTCTGCACGTAGAAGCAAAAGGC [A24G T35G], the fraction ligated was found to be 0.774.

GAGACCGCAACTGAAAAGTTGTTGTCACTTGTCGCAAGACACTTTGGATGGGTTGAAGTTCTGCACGTAGAAGCAAAAGGC [A24G T35C]: the fraction ligated amounted to 0.776.

(Values after the supplement of paper PMC6755084.)
